IntAct's records for PubMed 19258017

B1: Cellulose synthase A catalytic subunit 7 [UDP-forming] (Arabidopsis thaliana (Mouse-ear cress)), Q9SWW6 (parent)
chain: MEASAGLVAGSHNRNELVVIHNHEEPKPLKNLDGQFCEICGDQIGLTVEGDLFVACNECGFPACRPCYEYERREGTQNCPQCKTRYKRLRGSPRVEGDEDEEDIDDIEYEFNIEHEQDKHKHSAEAMLYGKMSYGRGPEDDENGRFPPVIAGGHSGEFPVGGGYGNGEHGLHKRVHPYPSSEAGSEGGWRERMDDWKLQHGNLGPEPDDDPEMGLIDEARQPLSRKVPIASSKINPYRMVIVARLVILAVFLRYRLLNPVHDALGLWLTSVICEIWFAVSWILDQFPKWFPIERETYLDRLSLRYEREGEPNMLAPVDVFVSTVDPLKEPPLVTSNTVLSILAMDYPVEKISCYVSDDGASMLTFESLSETAEFARKWVPFCKKFSIEPRAPEMYFTLKVDYLQDKVHPTFVKERRAMKREYEEFKVRINAQVAKASKVPLEGWIMQDGTPWPGNNTKDHPGMIQVFLGHSGGFDVEGHELPRLVYVSREKRPGFQHHKKAGAMNALVRVAGVLTNAPFMLNLDCDHYVNNSKAVREAMCFLMDPQIGKKVCYVQFPQRFDGIDTNDRYANRNTVFFDINMKGLDGIQGPVYVGTGCVFKRQALYGYEPPKGPKRPKMISCGCCPCFGRRRKNKKFSKNDMNGDVAALGGAEGDKEHLMSEMNFEKTFGQSSIFVTSTLMEEGGVPPSSSPAVLLKEAIHVISCGYEDKTEWGTELGWIYGSITEDILTGFKMHCRGWRSIYCMPKRPAFKGSAPINLSDRLNQVLRWALGSVEIFFSRHSPLWYGYKGGKLKWLERFAYANTTIYPFTSIPLLAYCILPAICLLTDKFIMPPISTFASLFFISLFMSIIVTGILELRWSGVSIEEWWRNEQFWVIGGISAHLFAVVQGLLKILAGIDTNFTVTSKATDDDDFGELYAFKWTTLLIPPTTVLIINIVGVVAGISDAINNGYQSWGPLFGKLFFSFWVIVHLYPFLKGLMGRQNRTPTIVVIWSVLLASIFSLLWVRIDPFVLKTKGPDTSKCGINC
partner: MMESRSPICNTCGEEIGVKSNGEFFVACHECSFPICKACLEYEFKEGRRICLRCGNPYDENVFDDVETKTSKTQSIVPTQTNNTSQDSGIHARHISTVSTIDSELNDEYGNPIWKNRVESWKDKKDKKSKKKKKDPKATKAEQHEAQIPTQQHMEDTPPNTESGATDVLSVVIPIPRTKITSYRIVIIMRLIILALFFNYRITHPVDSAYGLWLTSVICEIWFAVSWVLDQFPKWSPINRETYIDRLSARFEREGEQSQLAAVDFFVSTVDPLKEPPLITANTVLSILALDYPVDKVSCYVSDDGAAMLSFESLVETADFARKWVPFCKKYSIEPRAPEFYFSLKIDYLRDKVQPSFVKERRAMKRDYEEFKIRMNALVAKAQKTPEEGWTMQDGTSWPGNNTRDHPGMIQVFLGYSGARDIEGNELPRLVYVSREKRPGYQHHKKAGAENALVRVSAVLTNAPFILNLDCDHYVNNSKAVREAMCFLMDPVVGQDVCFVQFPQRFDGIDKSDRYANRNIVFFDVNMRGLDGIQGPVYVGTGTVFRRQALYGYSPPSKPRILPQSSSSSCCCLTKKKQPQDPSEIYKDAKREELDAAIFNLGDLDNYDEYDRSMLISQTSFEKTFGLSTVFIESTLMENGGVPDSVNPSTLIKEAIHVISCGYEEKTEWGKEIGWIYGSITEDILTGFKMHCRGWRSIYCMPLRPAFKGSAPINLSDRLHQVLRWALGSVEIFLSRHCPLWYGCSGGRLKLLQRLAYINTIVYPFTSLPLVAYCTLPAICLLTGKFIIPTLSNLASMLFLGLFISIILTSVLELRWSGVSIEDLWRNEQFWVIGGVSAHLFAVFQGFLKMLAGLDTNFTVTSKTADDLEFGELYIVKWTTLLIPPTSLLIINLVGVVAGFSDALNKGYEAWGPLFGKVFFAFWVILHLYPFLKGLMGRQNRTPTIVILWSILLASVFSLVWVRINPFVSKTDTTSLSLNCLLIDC
B2: Cellulose synthase A catalytic subunit 7 [UDP-forming] (Arabidopsis thaliana (Mouse-ear cress)), Q9SWW6 (parent)
chain: B1 chain
partner: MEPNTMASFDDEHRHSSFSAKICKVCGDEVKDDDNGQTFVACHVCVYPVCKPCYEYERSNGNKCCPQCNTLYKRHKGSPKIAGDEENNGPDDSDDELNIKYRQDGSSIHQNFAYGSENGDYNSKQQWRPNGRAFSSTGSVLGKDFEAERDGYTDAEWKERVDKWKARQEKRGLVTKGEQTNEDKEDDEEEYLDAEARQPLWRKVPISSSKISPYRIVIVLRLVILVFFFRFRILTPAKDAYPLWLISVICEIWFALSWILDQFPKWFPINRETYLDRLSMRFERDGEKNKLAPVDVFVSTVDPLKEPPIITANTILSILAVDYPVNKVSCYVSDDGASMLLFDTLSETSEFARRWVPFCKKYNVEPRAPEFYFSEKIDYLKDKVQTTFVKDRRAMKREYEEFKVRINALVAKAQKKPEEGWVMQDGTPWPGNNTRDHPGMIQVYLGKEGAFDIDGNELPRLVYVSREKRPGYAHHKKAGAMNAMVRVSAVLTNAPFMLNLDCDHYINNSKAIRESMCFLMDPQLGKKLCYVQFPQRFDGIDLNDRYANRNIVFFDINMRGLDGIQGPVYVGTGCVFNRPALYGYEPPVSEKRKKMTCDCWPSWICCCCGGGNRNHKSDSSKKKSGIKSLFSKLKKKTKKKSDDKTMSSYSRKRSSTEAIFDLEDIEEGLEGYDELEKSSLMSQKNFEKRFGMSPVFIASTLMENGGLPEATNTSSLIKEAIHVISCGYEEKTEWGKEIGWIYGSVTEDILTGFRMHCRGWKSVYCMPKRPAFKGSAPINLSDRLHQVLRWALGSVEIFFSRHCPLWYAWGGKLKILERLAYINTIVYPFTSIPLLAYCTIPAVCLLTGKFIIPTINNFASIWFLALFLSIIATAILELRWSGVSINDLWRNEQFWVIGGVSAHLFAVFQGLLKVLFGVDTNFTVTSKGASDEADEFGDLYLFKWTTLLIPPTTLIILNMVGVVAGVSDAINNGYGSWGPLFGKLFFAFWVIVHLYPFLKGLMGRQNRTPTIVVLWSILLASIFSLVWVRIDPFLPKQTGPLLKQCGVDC

Variants of: B1
Details: with cesa8_arath CESA8, Q8LPK5

Row | effect of a mutation on the interaction | Variant
1 | decreasing interaction | C37A

Variants of: B1
Details: with cesa8_arath CESA8, Q8LPK5
Remark: another data set of the same source

Row | effect of a mutation on the interaction | Variant
2 | decreasing interaction | C79A

Variants of: B1
Details: with cesa8_arath CESA8, Q8LPK5
Remark: another data set of the same source

Row | effect of a mutation on the interaction | Variant
3 | decreasing interaction | C64A

Variants of: B1
Details: with cesa8_arath CESA8, Q8LPK5
Remark: another data set of the same source

Row | effect of a mutation on the interaction | Variant
4 | decreasing interaction | C56A

Variants of: B2
Details: with cesa4_arath CESA4, Q84JA6

Row | effect of a mutation on the interaction | Variant
5 | decreasing interaction | C37A

Variants of: B2
Details: with cesa4_arath CESA4, Q84JA6
Remark: another data set of the same source

Row | effect of a mutation on the interaction | Variant
6 | decreasing interaction | C79A

Variants of: B2
Details: with cesa4_arath CESA4, Q84JA6
Remark: another data set of the same source

Row | effect of a mutation on the interaction | Variant
7 | decreasing interaction | C64A
